From patent US9175313B2, “Three-dimensional structure of isoprene synthase and its use thereof for generating variants” (Danisco US Inc., priority 2009, dated 2015)
Positions count from the first letter of the chain named. Numbers in names are those of the source.

B1: D345R: P. alba IspS variant (protein, UniProt Q50L36 38-595, looked up, variant D345R)
Isoprene synthase, …: CSVSTENVSFTETETEARRSANYEPNSWDYDYLLSSDTDESIEVYKDKAKKLEAEVRREINNEKAEFLTLLELIDNVQRLGLGYRFESDIRGALDRFVSSGGFDAVTKTSLHGTALSFRLLRQHGFEVSQEAFSGFKDQNGNFLENLKEDIKAILSLYEASFLALEGENILDEAKVFAISHLKELSEEKIGKELAEQVNHALELPLHRRTQRLEAVWSIEAYRKKEDANQVLLELAILDYNMIQSVYQRDLRETSRWWRRVGLATKLHFARDRLIESFYWAVGVAFEPQYSDCRNSVAKMFSFVTIIRDIYDVYGTLDELELFTDAVERWDVNAINDLPDYMKLCFLALYNTINEIAYDNLKDKGENILPYLTKAWADLCNAFLQEAKWLYNKSTPTFDDYFGNAWKSSSGPLQLVFAYFAVVQNIKKEEIENLQKYHDTISRPSHIFRLCNDLASASAEIARGETANSVSCYMRTKGISEELATESVMNLIDETWKKMNKEKLGGSLFAKPFVETAINLARQSHCTYHNGDAHTSPDELTRKRVLSVITEPILPFER
B2: D345P: P. alba IspS variant (protein, UniProt Q50L36 38-595, looked up, variant D345P)
Isoprene synthase, …: B1 Isoprene synthase, … with R308P
B3: L469L: SEL member with the wild type residue at site 469 (wild type codon substituted) (protein, UniProt Q50L36 38-595, looked up)
Isoprene synthase, …: B1 Isoprene synthase, … with R308D
B4: D345Y: P. alba IspS variant (protein, UniProt Q50L36 38-595, looked up, variant D345Y)
Isoprene synthase, …: B1 Isoprene synthase, … with R308Y
B5: D345I: P. alba IspS variant (protein, UniProt Q50L36 38-595, looked up, variant D345I)
Isoprene synthase, …: B1 Isoprene synthase, … with R308I
B6: H515H: SEL member with the wild type residue at site 515 (wild type codon substituted) (protein, UniProt Q50L36 38-595, looked up)
Isoprene synthase, …: B1 Isoprene synthase, … with R308D
B7: PC: P. alba MEA L494P T536C (+) TEV; pDW113, SEQ ID NO: 93 (protein)
chain: MEARRSANYEPNSWDYDYLLSSDTDESIEVYKDKAKKLEAEVRREINNEKAEFLTLLELIDNVQRLGLGYRFESDIRGALDRFVSSGGFDAVTKTSLHGTALSFRLLRQHGFEVSQEAFSGFKDQNGNFLENLKEDIKAILSLYEASFLALEGENILDEAKVFAISHLKELSEEKIGKELAEQVNHALELPLHRRTQRLEAVWSIEAYRKKEDANQVLLELAILDYNMIQSVYQRDLRETSRWWRRVGLATKLHFARDRLIESFYWAVGVAFEPQYSDCRNSVAKMFSFVTIIDDIYDVYGTLDELELFTDAVERWDVNAINDLPDYMKLCFLALYNTINEIAYDNLKDKGENILPYLTKAWADLCNAFLQEAKWLYNKSTPTFDDYFGNAWKSSSGPLQLVFAYFAVVQNIKKEEIENLQKYHDTISRPSHIFRLCNDLASASAEIARGETANSVSCYMRTKGISEELATESVMNLIDETWKKMNKEKLGGSPFAKPFVETAINLARQSHCTYHNGDAHTSPDELTRKRVLSVICEPILPFERENLYFQGLEHHHHHH
modifications: TEV site
B8: G491S: P. alba IspS variant G491S; pDW100, strain DW398, SEQ ID NO: 67 (protein)
chain: B7 chain with G491S, P494L, C536T
B9: NC: P. alba MEA A453N T536C (+) TEV; pDW105, SEQ ID NO: 77 (protein)
chain: B7 chain with A453N, P494L
modifications: TEV site
B10: NPC: P. alba MEA A453N L494P T536C (+) TEV; pDW108, SEQ ID NO: 83 (protein)
chain: B7 chain with A453N
modifications: TEV site
B11: NSPC: P. alba MEA A453N G491S L494P T536C (+) TEV; pDW109, SEQ ID NO: 85 (protein)
chain: B7 chain with A453N, G491S
modifications: TEV site
B12: NP: P. alba MEA A453N L494P (+) TEV; pDW104, SEQ ID NO: 75 (protein)
chain: B7 chain with A453N, C536T
modifications: TEV site
B13: NSP: P. alba MEA A453N G491S L494P (+) TEV; pDW106, SEQ ID NO: 79 (protein)
chain: B7 chain with A453N, G491S, C536T
modifications: TEV site
B14: NS: P. alba MEA A453N G491S (+) TEV; pDW103, SEQ ID NO: 73 (protein)
chain: B7 chain with A453N, G491S, P494L, C536T
modifications: TEV site
B15: SC: P. alba MEA G491S T536C (+) TEV; pDW111, SEQ ID NO: 89 (protein)
chain: B7 chain with G491S, P494L
modifications: TEV site
B16: NSC: P. alba MEA A453N G491S T536C (+) TEV; pDW107, SEQ ID NO: 81 (protein)
chain: B7 chain with A453N, G491S, P494L
modifications: TEV site

Columns and labels:
[1] = DMAPP assay of site evaluation library (SEL) lysates with ELISA protein quantitation: specific activity ranked as performance index; assay type: biochemical; conditions: primary SEL screen; activity on DMAPP per unit weight relative to the parental molecule (parent = 1)
Procedure: 1. Prepared Patch Plates from Glycerol Stock Plates. Using a V&S 96 pin Replication Tool, cultures were patched onto a LB Agar 35 CMP/50 Kan large patch plates from overnight glycerol stock plates. Plates were incubated at 30° C. overnight for 20 to 24 hr. Cultures can be stored at 4° C. for up to a week.
2. Prepared Overnight Growth Plates. 500 mL of LB 35 CMP/50 Kan media were prepared. 300 μL/well of LB 35 CMP/50 Kan media were dispensed into deep 96 well plates (VWR). Using a V&S Replication Tool, the patch inoculum was transferred into deep 96 well plate by touching the tool pins to respective patch and using a circular motion to coat the pins with inoculum. The media was inoculated by dipping the tool then shaking the pin within the well. The overnight growth plates were sealed using a Breathe-Easier Sealing Membrane (Diversified Biotech). The plates were incubated in a Vertiga Shaking Incubator at 30° C. with shaking at 800 rpm overnight for 16 to 18 hr.
3. Prepared Day Growth Plate. Deep 96 well plates were prepared by dispensing 588 μL/well of LB 35 CMP/50 Kan media. Overnight growth plates were removed from the incubator. Overnight cultures were diluted 50-fold and 12 μL of overnight culture were transferred to day growth plates containing 588 μL/well of LB media containing antiobiotics. Overnight growth plates were sealed with new Breathe-Easier Sealing Membranes. Cultures were incubated at 30° C. and 800 rpm for 2.5 hr. Frozen 12 mM IPTG (Sigma) vials were removed from −20° C. and placed in a hood to thaw.
4. OD600 Plate Read of Overnight, Induction, and Harvest. 150 μL 1×PBS were dispensed into 96 well Costar Read Plates (#9017). 50 μL of culture samples were transferred to Read Plates. The OD600 reading was recorded using a Spectramax Plate Reader (Molecular Devices).
5. Induction. Electronic multi-channel pipettors were prepared to dispense 4×20 μL/well of IPTG (if 4× replicates). The multi-dispense option in the electronic pipettor was adjusted if more replicates was necessary. Thawed 12 mM IPTG was poured into 50 mL or 100 mL sterile reservoirs. 20 μL/well of IPTG into each 600 μL/well culture. Overnight growth plates were resealed. Cultures were incubated at 30° C. and 800 rpm for 4 hr. OD600 readings of plates were recorded according instructions above.
6. Harvest. 400 μL of induced culture were transferred to 800 μL Grenier storage plates. Plates were centrifuged at 3300 rpm for 20 min at 2° to 8° C. in a low speed benchtop centrifuge. Supernatants were discarded, pellets should stay in the conical bottom well. Residual supernatants were slapped out onto a paper towel on the benchtop. Plates were sealed with an aluminum foil membrane (Beckman-Coulter). Plates were covered with a plastic plate lid if available. Storage plates were labeled accordingly and stored frozen at −80° C.
Plates containing induced cell pellets were removed from the −80° C. freezer and allowed to thaw on the benchtop for 30 minutes prior to lysis. 200 μl of lysis buffer (50 mM Tris pH 8, 25 mM MgCl2, 74 μg/ml DNase I, 250 U/ml lysozyme, 0.1% Tween 20, 0.5 mM PMSF) was added to each pellet, and plates were incubated on an Eppendorf Thermomixer at 25° C. for 30 minutes at 1200 rpm. After lysis, plates were centrifuged at 3450 rpm for 15 minutes at 4° C. Supernatants were then removed and diluted 10-fold prior to DMAPP assay. 80 μl of the diluted supernatant was added to 20 μl of the DMAPP working stock (20 mM DMAPP in 0.1 M Phosphate Buffer pH 8.2, DMAPP triammonium salt, Cayman chemicals) in a Zinsser glass block. Blocks were then sealed with aluminum sealing membranes, and incubated in Thermomixers at 25° C. for 30 minutes at 450 rpm. Reactions were stopped by incubating blocks on Thermomixers at 70° C. for 12 minutes at 450 rpm. GC-MS was then used for headspace measurements to calculate the amount of isoprene produced by each lysates.
Headspace Assay. […]

[2] = Specific activity measurement of purified isoprene synthase variants (4 mM DMAPP, 30 C, GC-MS headspace); assay type: biochemical; conditions: 50 mM NaCl, 50 mM Tris pH = 8, 30° C.; for Variant S.A./WT S.A.: ratio to WT
Procedure: 1. Initial Purification—Resuspend the pellet in 3 ml of fresh lysis buffer. Break cells by passing them through the French Press using the small cylinder. Centrifuge samples for 1 hour at 30,000×G and collect the supernatant. Retain pellet in order to test for presence of insoluble protein. Pre equilibrate 0.5 mL Ni Sepharose 6 Fast Flow resin (Amersham) in a 20 ml disposable column with 10 mL of Ni wash buffer. Add protein to column and shake for 60 min at 4 C to bind protein. Elute protein with 2.5 mL Ni elution buffer.
2. Buffer Exchange—Equilibrate a PD-10 column (GE Healthcare) with 25 mL of PD-10 buffer. Load protein on to column and elute with 3.5 mL of PD-10 buffer.
10 uL of purified enzyme was incubated with 4 mM DMAPP, 50 mM MgCl2 in a buffer containing 50 mM Tris and 50 mM NaCl (pH=8) to a final volume of 100 uL for 15 min. at 30 C in gas tight 2 mL vials. Reactions were terminated with the addition of 100 uL of […] EDTA, pH=8. Samples were analyzed by GC-MS to determine the concentration of isoprene in the headspace of the vials. All specific activity measurements were performed in triplicate.
Protein concentration was determined by measuring the absorbance of each protein solution at 280 nm on a Helwlett Pachard 8453 UV-Vis spectrophotometer and converting the absorbance to protein concentration using the extinction coefficient as determined on the Expasy website (Gasteiger E., Hoogland C., Gattiker A., Duvaud S., Wilkins M. R., Appel R. D., Bairoch A.; Protein Identification and Analysis Tools on the ExPASy Server; (In) John M. Walker (ed): The Proteomics Protocols Handbook, Humana Press (2005). pp. 571-607). The protein concentrations of isoprene synthase variants assayed for KM and kcat determination were verified by comparative gel electrophoresis of a dilution series of each protein (FIG. 61).

| Molecule | performance index [1] | S.A. [2] | Variant S.A./WT S.A. [2] |
| --- | --- | --- | --- |
| B1 | 0.40 | – | – |
| B2 | 0.35 | – | – |
| B3 | 0.96 | – | – |
| B4 | 0.84 | – | – |
| B5 | 0.73 | – | – |
| B6 | 0.81 | – | – |
| B7 | – | 490 ± 20 nmol/mg/min | 1.0 |
| B8 | – | 480 ± 20 nmol/mg/min | 1.0 |
| B9 | – | 420 ± 30 nmol/mg/min | 0.9 |
| B10 | – | 440 ± 20 nmol/mg/min | 0.9 |
| B11 | – | 502 ± 6 nmol/mg/min | 1.1 |
| B12 | – | 490 ± 20 nmol/mg/min | 1.0 |
| B13 | – | 465 ± 2 nmol/mg/min | 1.0 |
| B14 | – | 480 ± 40 nmol/mg/min | 1.0 |
| B15 | – | 440 ± 20 nmol/mg/min | 0.9 |
| B16 | – | 390 ± 20 nmol/mg/min | 0.8 |
